In IntAct's records for PubMed 18818696:

B1: Protein SGT1 homolog (Homo sapiens), Q9Y2Z0-2 (parent)
chain: MAAAAAGTATSQRFFQSFSDALIDEDPQAALEELTKALEQKPDDAQYYCQRAYCHILLGNYCVAVADAKKSLELNPNNSTAMLRKGICEYHEKNYAAALETFTEGQKLDSADANFSVWIKRCQEAQNGSESEVWTHQSKIKYDWYQTESQVVITLMIKNVQKNDVNVEFSEKELSALVKLPSGEDYNLKLELLHPIIPEQSTFKVLSTKIEIKLKKPEAVRWEKLEGQGDVPTPKQFVADVKNLYPSSSPYTRNWDKLVGEIKEEEKNEKLEGDAALNRLFQQIYSDGSDEVKRAMNKSFMESGGTVLSTNWSDVGKRKVEINPPDDMEWKKY

Variants of: B1
Conditions: with skp1_human SKP1, P63208
Sequence of skp1_human SKP1, P63208 (P63208 whole entry): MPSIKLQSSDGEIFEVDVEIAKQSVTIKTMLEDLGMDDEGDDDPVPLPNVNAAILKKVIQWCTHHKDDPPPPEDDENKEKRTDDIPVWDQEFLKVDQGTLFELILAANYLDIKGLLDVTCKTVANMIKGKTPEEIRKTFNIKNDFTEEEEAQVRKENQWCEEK

**Q.** Which “effect of a mutation on the interaction” value does the source give for Y145R here?
**A.** The value was “increasing interaction”.
